Laboratory results reported in patent CN113484526A (SHANGHAI MABGEN MEDICINE TECH CO LTD, dated 2021).
Values belong to the molecule of their own block, whether it stands above or below them.

What was measured:
[1] = biological target: Human FcRn Protein, His Tag (ACRO Biosystems, Cat.No.FCN-H52W7) (human) (UniProt P55899); experiment: competition ELISA against Biotin-IgG on FcRn-His, relative to the reference antibody (SEQ ID NO: 180/181)
[2] = biological target: T1, 人FcRn胞外区-β2M复合物(带His标签的重组蛋白) (human, UniProt P61769 21-119); experiment: hybridoma screening: binding ELISA, cell binding and cell blocking
T1 construct: also called FcRn抗原; 人FcRn-β2M复合物; not shown: His tag

- 生物学活性(相对参考品) [1]: 0%
Molecule: 不针对FcRn靶点的无关抗体(IgG4亚型，迈晋生物自制) (antibody)

- binding result [2]: binds
B1: hybri11 (antibody, V domains shown)
VH: QVQLQQPGAELVKPGASVKVSCKASGSTFTSYYMHWVKQRPGQGLEWIGRIHPSNSDSNYNQKFKGKATLTVDKSSSTAYMQLSSLTSEDSAVYYCAMKRDGYYEGFPHWGQGTLVTVSA
VL: DIQMTQSPASQSASLGESVTITCLASQTIGTWLAWYQQKPGKSPQLLIYAATSLADGVPSRFSGSRSGTKFSFKISSLQAEDFVSYYCQQLYSTPYTFGGGTKLEIK
notes: Mouse hybridoma antibody; tested as hybridoma supernatant/purified antibody; also called 阳性克隆hybri11
